The record followed here is patent publication US6808930B1, “Therapeutic agents” (priority 1997, dated 2004).

In assay [1] the test system is L1210 cells. The experiment in a line: Cell surface binding of 125I-labelled protein, cell associated radioactivity. Details: species or system murine. Particulars: 30 min exposure to 2×10^6 cpm of 125I-labelled protein. As to the method: Cell surface binding of MAL was also quantitated as the cell associated radioactivity during the first 30 min after addition of ^125I-labelled MAL to the cells (FIG. 2B). […]

Assay [2] concerns HRTEC cells. The experiment in a line: Cell surface binding of biotinylated protein, flow cytometry. Also on record: species or system human. Particulars: biotinylated MAL, 30 min; third of three cell types (HRTEC by order). The procedure: (§1) MAL, human α-lactalbumin (HLA) and immunoglobulin G were biotinylated according to the manufacturer's instructions or labelled with ^125I with the lactoperoxidase method. Proteins were dissolved in PBSA-T buffer (30 mM Na2HPO4, 120 mM NaCl, pH 7.4, with 0.1% NaAzid, 0.05% Tween-20) and 25 μl of protein (25 μg) was incubated with 2 μl of ^125([…]), 2 μl of lactoperoxidase (2.5 mg/ml) and 2 μl of H2O2 (diluted 1:2000 in PBS) for 2 min at room temperature. The reaction was stopped by the addition of 500 μl of PBSA-T. The labelled protein was purified on a PD-10 column. 500 μl fractions in PBSA-T were eluted and fractions containing radioactivity were stored at […]. […] L1210, A549 and HRTEC cells (3×10^6 cells/ml, 50 μl) were incubated in suspension with 50 μl of biotinylated MAL, ALA or BSA for various times at 37° C. The cells were washed with PBS by centrifugation at 320×g for 10 min and the supernatant was discarded. FITC-conjugated streptavidin (diluted 1:50 in PBS) was added and the cells were incubated for 30 min at room temperature. The cells were washed by centrifugation as above, suspended in 300 μl PBS and the surface fluorescence was analysed by flow cytometry on a Coulter Epics Profile II flow cytometer (Coulter Inc.), equipped with a 488 nm argon laser. Green fluorescence was detected with a 525 nm band pass filter. […]
In general terms: Flow cytometry measures light scatter and fluorescence of single cells or particles in a stream.

Assay [3] deals with A549 cells. The description is as above. Also on record: species or system human. Conditions: biotinylated MAL, 30 min; second of three cell types (A549 by order). The procedure: as §1
Assay [4] relates to A549 cells. The experiment in a line: Nuclear uptake of biotinylated protein, confocal microscopy. In kind it is cell-based, human. The procedure:
To detect intracellular protein, the cells were fixed at various times after addition of 0.3 mg/ml of biotinylated MAL for 5 min in phosphate-buffered paraformaldehyde (4%) (B. Sander et al., Immunol. Rev. (1991) 119: 65-92) at room temperature, washed in PBS, and permeabilized with 0.1% saponin in PBS. FITC conjugated streptavidin (diluted 1:100 in 0.1% saponin) was added and the cells were incubated for 30 min at room temperature. The cells were washed twice in PBS-saponin and once in PBS, mounted on a glass slide and analysed in a Bio-Rad 1024 laser scanning confocal equipment (Bio Rad Laboratories, Hemel-Hempstead, UK) attached to a Nikon Diaphot inverted microscope.

B1: MAL: protein complex from human milk casein containing oligomeric forms of α-lactalbumin; the apoptosis-inducing fraction (protein, UniProt P00709 20-142, looked up)
Alpha-lactalbumin: KQFTKCELSQLLKDIDGYGGIALPELICTMFHTSGYDTQAIVENNESTEYGLFQISNKLWCKSSQVPQSRNICDISCDKFLDDDITDDIMCAKKILDIKGIDYWLAHKALCTEKLEQWLCEKL
modifications: oligomeric form from milk casein
notes: protein complex from human milk casein containing oligomeric forms of α-lactalbumin; the apoptosis-inducing fraction
As for B1, the “cell surface binding, cell associated radioactivity” value in assay [1] is 23 000 cpm. Moreover, the “fluorescence intensity of cell surface binding” value in assay [2] is reported as 8.5 times that of the streptavidin control; in assay [3], 13.4 times that of the streptavidin control. Also, the “incubation time after which cytoplasmic, granular fluorescence was detected” value in assay [4] (FIG. 3) was found to be 3 h. Moreover, the “incubation time at which nuclear accumulation was maximal” value in assay [4] (FIG. 3) amounted to 24 h. In addition, the cytoplasmic staining result in assay [4] (biotinylated MAL) is given as “granular fluorescence evenly distributed throughout the cell”. In addition, the “cell nuclei stained brightly” value in assay [4] (biotinylated MAL, longer incubation times (time not given)) is “About 15%”.
